± gives the uncertainty stated by the source.
B1: Death-inducer obliterator 1, residues 263 to 321; numbered along this chain, Q9BTC0 (parent)
chain: GYDPNALYCICRQPHNNRFMICCDRCEEWFHGDCVGISEARGRLLERNGEDYICPNCTI
B2: Homeobox protein SIX6, residues 134 to 184; numbered along this chain, O95475 (parent)
chain: CFKERTRHLLREWYLQDPYPNPSKKRELAQATGLTPTQVGNWFKNRRQRDR

Variants of: B1
Assay: abundance fitness (aPCA) (normalised: wild type 0, dead -1); higher = more abundant; growth selection in yeast, the domain comes from the species named
Conditions: Homo sapiens

Abundance fitness, by site and new letter:
P55: R 0.019 ± 0.059; T 0.083 ± 0.069; G -0.531 ± 0.23; F -0.4 ± 0.16; L -0.011 ± 0.074; E -0.116 ± 0.16; M -0.112 ± 0.091; C -0.098 ± 0.092; I -0.156 ± 0.096; H -0.04 ± 0.11; N -0.365 ± 0.2; D -0.66 ± 0.38; Y -0.245 ± 0.16; A 0.078 ± 0.066; Q 0.109 ± 0.15; K 0.265 ± 0.082
I53: L 0.132 ± 0.081; S 0.02 ± 0.087; A 0.059 ± 0.089; V -0.028 ± 0.074; P -0.419 ± 0.14; G -0.136 ± 0.064; Y 0.149 ± 0.21; K 0.355 ± 0.12; E 0.172 ± 0.17; H -0.093 ± 0.13; C 0.063 ± 0.11; R -0.024 ± 0.097; M 0.269 ± 0.19; Q -0.03 ± 0.15; N 0.328 ± 0.22
R47: D 0.268 ± 0.16; W -0.062 ± 0.11; G 0.111 ± 0.083; N -0.05 ± 0.2; A 0.083 ± 0.093; M -0.155 ± 0.17; F -0.204 ± 0.11; L 0.079 ± 0.071; K 0.359 ± 0.075; Q -0.346 ± 0.38; I 0.058 ± 0.092; T 0.134 ± 0.12; E -0.043 ± 0.13; S 0.037 ± 0.072; Y -0.286 ± 0.11; P 0.186 ± 0.083; V 0.188 ± 0.09
I59: V 0.279 ± 0.12; M 0.026 ± 0.21; W -0.414 ± 0.41; N 0.329 ± 0.27; S -0.015 ± 0.21; G -0.218 ± 0.39; D 0.618 ± 0.42; K 0.424 ± 0.21; H -0.14 ± 0.19; A 0.001 ± 0.27; F -0.122 ± 0.27; L -0.077 ± 0.14; R -0.046 ± 0.22
T58: F -0.264 ± 0.15; A 0.084 ± 0.064; M -0.115 ± 0.12; D 0.138 ± 0.094; S 0.047 ± 0.061; K 0.123 ± 0.1; G -0.006 ± 0.073; C 0.194 ± 0.16; L 0.127 ± 0.061; V -0.055 ± 0.079; Y -0.289 ± 0.092; H 0.046 ± 0.23; I 0.111 ± 0.09; R 0.3 ± 0.067; P 0.014 ± 0.087
E50: L -0.201 ± 0.094; D -0.005 ± 0.13; T 0.037 ± 0.14; V -0.041 ± 0.11; G -0.046 ± 0.099; W -0.356 ± 0.2; Y -0.58 ± 0.16; N -0.027 ± 0.13; F -0.019 ± 0.21; H -0.006 ± 0.24; R -0.273 ± 0.13; M -0.157 ± 0.11; S -0.192 ± 0.094; A -0.011 ± 0.11; P 0.068 ± 0.14; K 0.04 ± 0.26; I -0.14 ± 0.12; C -0.461 ± 0.17
E46: A 0.163 ± 0.12; Q -0.218 ± 0.21; L -0.109 ± 0.083; T 0.106 ± 0.11; N -0.009 ± 0.19; C 0.155 ± 0.13; V 0.044 ± 0.063; W -0.265 ± 0.2; R 0.021 ± 0.066; P -0.189 ± 0.12; I -0.265 ± 0.12; F -0.16 ± 0.1; M -0.055 ± 0.071; H -0.663 ± 0.45; K 0.079 ± 0.088; Y 0.065 ± 0.17; G -0.089 ± 0.087; S -0.064 ± 0.09
N56: A -0.037 ± 0.12; L -0.22 ± 0.078; C -0.014 ± 0.11; K -0.525 ± 0.27; T -0.01 ± 0.072; H -0.048 ± 0.17; W -0.002 ± 0.083; S 0.122 ± 0.071; G 0.064 ± 0.13; P -0.121 ± 0.096; Q -0.155 ± 0.16; M -0.138 ± 0.14; Y 0.021 ± 0.14; R -0.126 ± 0.11; E -0.007 ± 0.21
C54: I -1 ± 0.24; D -0.999 ± 0.28; K -0.571 ± 0.15; V -0.674 ± 0.097; H -0.245 ± 0.11; N -0.811 ± 0.25; G -1.15 ± 0.18; Q -0.405 ± 0.21; E -0.781 ± 0.16; P -0.821 ± 0.2; Y -1.24 ± 0.26; M -0.991 ± 0.25; S -0.723 ± 0.12; T -0.65 ± 0.17; L -1.19 ± 0.23
D51: K -0.216 ± 0.34; G 0.088 ± 0.098; S 0.07 ± 0.074; M -0.367 ± 0.15; C -0.094 ± 0.12; W -0.612 ± 0.22; P -0.289 ± 0.38; R 0.013 ± 0.088; Y 0.177 ± 0.1; L -0.332 ± 0.09; N -0.18 ± 0.12; A 0.142 ± 0.093; E 0.029 ± 0.1; Q 0.135 ± 0.13; T -0.004 ± 0.11; H -0.169 ± 0.15; I -0.135 ± 0.18; F -0.203 ± 0.25
L45: R -0.005 ± 0.064; G -0.068 ± 0.059; T -0.08 ± 0.15; K -0.173 ± 0.14; Y -0.055 ± 0.095; C -0.062 ± 0.097; V 0.016 ± 0.064; I -0.214 ± 0.24; F -0.295 ± 0.15; W -0.14 ± 0.094; D -0.01 ± 0.13; P -0.014 ± 0.094; S 0.033 ± 0.07; H 0.152 ± 0.091; M -0.096 ± 0.11; E 0.075 ± 0.11
L44: W -0.015 ± 0.075; V -0.045 ± 0.062; Y -0.028 ± 0.08
Y52: E -0.172 ± 0.092; W 0.09 ± 0.045; V -0.151 ± 0.084; F 0.009 ± 0.094; L -0.032 ± 0.081; H -0.493 ± 0.17; Q -0.256 ± 0.14; G -0.357 ± 0.099; C -0.275 ± 0.44; M -0.598 ± 0.26; N -0.334 ± 0.42; R -0.227 ± 0.07; I -0.196 ± 0.13; K -0.181 ± 0.12; T -0.03 ± 0.12; S -0.235 ± 0.077
G49: W -0.462 ± 0.17; C -0.216 ± 0.4; H 0.1 ± 0.11; L -0.089 ± 0.16; E 0.283 ± 0.13; V -0.199 ± 0.2; A 0.052 ± 0.11; Y 0.01 ± 0.26; M -0.002 ± 0.095; S 0.173 ± 0.19; F -0.243 ± 0.17; D -0.299 ± 0.18; R -0.066 ± 0.087; N 0.11 ± 0.16; I -0.016 ± 0.12; T -0.047 ± 0.1; Q -0.145 ± 0.22; K 0.163 ± 0.16
C57: V -0.904 ± 0.15; Y -0.903 ± 0.22; R -0.769 ± 0.094; T -0.509 ± 0.12; I -1.06 ± 0.3; E -0.483 ± 0.13; L -0.705 ± 0.12; N -0.582 ± 0.3; M -0.989 ± 0.32; P -0.828 ± 0.17; G -1.12 ± 0.29; H -0.206 ± 0.18; W -0.992 ± 0.17; D -0.498 ± 0.15; Q -0.842 ± 0.13; A -1.04 ± 0.2; S -0.848 ± 0.12

Variants of: B2
Assay: as above
Conditions: Homo sapiens

Abundance fitness, by site and new letter:
E4: C -0.55 ± 0.24; R -0.361 ± 0.079; N -0.03 ± 0.22; M -0.131 ± 0.15; D 0.017 ± 0.075; I -0.335 ± 0.17; L -0.271 ± 0.081; Q -0.277 ± 0.26; F -0.56 ± 0.24; V -0.5 ± 0.095; K -0.125 ± 0.14; Y -0.012 ± 0.17; H -0.587 ± 0.21; P -0.741 ± 0.17; S -0.276 ± 0.068; G -0.448 ± 0.1; T -0.362 ± 0.068; W -0.354 ± 0.063
K3: S 0.295 ± 0.09; M -0.171 ± 0.067; E -0.083 ± 0.11; I -0.17 ± 0.21; D 0.122 ± 0.054; C -0.06 ± 0.086; L -0.181 ± 0.094; W -0.298 ± 0.081; Q -0.402 ± 0.13; Y -0.672 ± 0.25; N -0.196 ± 0.21; F -0.095 ± 0.097; A -0.19 ± 0.059; P -0.1 ± 0.11; R -0.118 ± 0.067; G -0.358 ± 0.083; T 0.201 ± 0.063; V -0.562 ± 0.098
R7: F -0.221 ± 0.099; D 0.167 ± 0.097; G -0.22 ± 0.057; I 0.073 ± 0.059; M 0.073 ± 0.086; L 0.051 ± 0.051; K 0.126 ± 0.05; C -0.306 ± 0.092; E 0.236 ± 0.054; A 0.033 ± 0.053; P -0.359 ± 0.07; N -0.138 ± 0.067
R5: S 0.191 ± 0.051; P -0.355 ± 0.19; T 0.159 ± 0.12; Y -0.221 ± 0.43; N -0.075 ± 0.13; G 0.082 ± 0.094; V -0.315 ± 0.15; A -0.377 ± 0.12; E 0.068 ± 0.099; Q -0.74 ± 0.16; M 0.078 ± 0.17; D 0.116 ± 0.17; L -0.175 ± 0.07; K -0.263 ± 0.21; I -0.172 ± 0.21; W -0.558 ± 0.16
C1: F 0.095 ± 0.31; G 0 ± 0.27; S 0.116 ± 0.18
T6: I 0.36 ± 0.071; L -0.095 ± 0.064; D -0.45 ± 0.18; M -0.042 ± 0.066; C -0.76 ± 0.23; V 0.173 ± 0.045; H -0.356 ± 0.16; R -0.3 ± 0.057; K -0.368 ± 0.084; S -0.174 ± 0.057; F -0.691 ± 0.16; Q -0.168 ± 0.058; Y -0.45 ± 0.12; W -0.182 ± 0.097; N -0.498 ± 0.26; G -0.24 ± 0.047; E -0.619 ± 0.12; A -0.036 ± 0.067
F2: C 0.025 ± 0.067; V -0.255 ± 0.063; M 0.192 ± 0.093; R -0.407 ± 0.088; I 0.179 ± 0.14; Q -0.182 ± 0.09; K 0.247 ± 0.11; L -0.023 ± 0.069; W -0.369 ± 0.046; A -0.111 ± 0.043; N 0.333 ± 0.36; D 0.05 ± 0.091; E 0.102 ± 0.094; T 0.196 ± 0.081; Y -0.11 ± 0.14; G -0.017 ± 0.051; P -0.383 ± 0.11; H -0.013 ± 0.11; S 0.256 ± 0.042

From the Human Domainome abundance scans (Beltran et al. 2025)
